Data taken from US20180030137A1 (ADURO BIOTECH HOLDINGS EUROPE B V, published 2018).

Legend:
[1] = target: T1, Human PD-1 (Swiss-Prot entry Q15116), full length, on cells (human, UniProt Q15116 21-288); test: flow cytometry, Binding (%), on anti-CD3/anti-CD28 stimulated human CD3+ T cells, donor #2
T1 construct: Full length open reading frame of hPD-1 stably expressed on CHO-K1 cells; also endogenous PD-1 on CD3/CD28-stimulated human CD3+ T cells and PD-1 on transfected Jurkat cells; also called hPD-1; hPDCD1
T1 sequence (Q15116 21-288, one chain of several): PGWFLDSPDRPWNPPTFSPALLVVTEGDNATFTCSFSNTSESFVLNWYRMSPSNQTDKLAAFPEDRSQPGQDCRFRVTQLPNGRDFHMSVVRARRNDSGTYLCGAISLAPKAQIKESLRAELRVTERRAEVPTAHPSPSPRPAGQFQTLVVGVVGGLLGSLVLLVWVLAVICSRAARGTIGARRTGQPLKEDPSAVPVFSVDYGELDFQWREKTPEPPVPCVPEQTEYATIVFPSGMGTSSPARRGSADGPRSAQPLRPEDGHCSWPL
Description: Cells were stored in liquid nitrogen and retrieved from the freezer on the day of the experiment. Since endogenous expression of hPD-1 on resting T cells is low, the thawed CD3+ T cells were stimulated with αCD3/αCD28 coated beads (Gibco) for 48 hours.

[2] = target: T1, Human PD-1 (Swiss-Prot entry Q15116), …; test: cell-based or functional assay
[3] = target: T2, hPD-1/Fc fusion protein (R&D Systems) (human, UniProt Q15116 25-167); test: BLI (Octet RED96), hPD-1/Fc amine-coupled, IgG in solution, 1:1 global fit
T2 construct: Bought reagent; also called Recombinant hPD-1/Fc; not shown: Fc part of the bought fusion protein
T2 sequence (Q15116 25-167 limits assumed): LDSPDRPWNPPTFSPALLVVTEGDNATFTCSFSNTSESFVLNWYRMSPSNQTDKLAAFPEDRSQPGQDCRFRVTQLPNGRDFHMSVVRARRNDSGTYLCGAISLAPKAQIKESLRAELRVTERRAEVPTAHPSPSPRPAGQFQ
Description: This assay was, performed by coupling hPD-1/Fc fusion protein (R&D Systems) to amine-reactive second generation biosensors (Fortebio) using standard amine chemistry. […] Amine-reactive biosensors were pre-wet by immersing them in wells containing 0.1M MES pH=5.5 for 10 minutes. The biosensors were then activated using a 0.1M NHS/0.4M EDC mixture for 5 minutes. hPD-1/Fc fusion protein was coupled by immersing the biosensors in a solution of 12 ug/mL hPD-1/Fc in 0.1 M MES for 7.5 minutes. The biosensor surface was quenched using a solution of 1M ethanolamine for 5 minutes. Biosensors were equilibrated in Octet kinetics buffer (ForteBio) for 5 minutes. […] Dissociation was measured after transfer of the biosensors into kinetics buffer and monitoring of the interferometry signal for 45 minutes. The assay was run with a plate temperature of 30° C. The observed on and off rates (kobs and kd) were fit using a 1:1 binding global fit model comprising all concentrations tested, and the equilibrium binding constant KD was calculated.

[4] = target: T1, Human PD-1 (Swiss-Prot entry Q15116), …; test: CELISA on CHO-K1.hPDCD1 cells; blocking of biotinylated hPD-L1 Fc
Description: To further characterize these mutant hPD-1 antibodies they were tested for binding to hPD-1 in CELISA format using CHO-K1 cells (American Type Culture Collection, Manassas, Va.), stably transfected with cDNA encoding the full length open reading frame of hPDCD1 (hPD-1), subcloned into the pCI-neo vector (Promega). Parental CHO-K1 or CHO-K1.hPDCD1 cells were seeded in culture medium (DMEM-F12 (Gibco) with 10% Fetal Bovine Serum (Hyclone) and Pen/Strep (Gibco)) in tissue culture plates and incubated for 48 hours at 37° C. Subsequently culture medium was removed and cells were incubated for 1 hour at 37° C. with the mutant hPD-1 antibodies (10 μg/ml (=66 nM) and dilutions thereof). Next, cells were washed with Phosphate-Buffered Saline/0.05% Tween (PBST) and incubated for 1 hour at 37° C. with Goat-anti-human IgG-HRP (Southern Biotech). Subsequently, cells were washed 3 times with PBST and anti-hPD1 immunoreactivity was visualized with 100 al TMB Stabilized Chromagen (Invitrogen). Reactions were stopped with 100 al 0.5 M H2SO4 and absorbances were read at 450 and 610 nm. […] Blockade of hPD-L1 binding by the mutant hPD-1 antibodies was tested in CELISA format. Parental CHO-K1 or CHO-K1.hPDCD1 cells were seeded in tissue culture plates and incubated for 72 hours at 37° C. in culture medium. Subsequently culture medium was removed and cells were incubated for 1 hour with the mutant hPD-1 antibodies (10 μg/ml (=66 nM) and dilutions thereof) at 37° C. […] Cells were then washed three times with PBST followed by addition of Streptavidin-HRP conjugate on the cells, which was incubated for 1 hour at 37° C. […] Reactions were stopped with 100 al 0.5 M H2SO4 and absorbances were read at 450 and 610 nm. Calculated IC50 values in Table 12 for the blockade of hPD-L1 represent the concentration at which half of the inhibition is observed.

[5] = target: T1, Human PD-1 (Swiss-Prot entry Q15116), …; test: CELISA on CHO-K1.hPDCD1 cells; blocking of biotinylated hPD-L2 Fc
Description: Parental CHO-K1 or CHO-K1.hPDCD1 cells were seeded in tissue culture plates and incubated for 72 hours at 37° C. in culture medium. […] Cells were then washed three times with PBST followed by addition of Streptavidin-HRP conjugate on the cells, which was incubated for 1 hour at 37° C. […] Reactions were stopped with 100 al 0.5 M H₂SO₄ and absorbances were read at 450 and 610 nm. […] Calculated IC50 values represent the concentration at which half of the inhibition is observed.

[6] = target: T3, Macaca fascicularis PD-1 (Swiss-Prot entry B0LAJ3), full length, on cells (Macaca fascicularis, UniProt Q15116 25-288 (human entry)); test: flow cytometry, Binding (%), on anti-CD3/anti-CD28 stimulated cynomolgus PBMCs, animal #2
T3 construct: Full length open reading frame transiently expressed on CHO-K1 cells; also endogenous PD-1 on CD3/CD28-stimulated cynomolgus PBMCs; No signal peptide limits are stated for the cynomolgus entry; also called cyno PD-1; cynomolgus PD-1
T3 chain: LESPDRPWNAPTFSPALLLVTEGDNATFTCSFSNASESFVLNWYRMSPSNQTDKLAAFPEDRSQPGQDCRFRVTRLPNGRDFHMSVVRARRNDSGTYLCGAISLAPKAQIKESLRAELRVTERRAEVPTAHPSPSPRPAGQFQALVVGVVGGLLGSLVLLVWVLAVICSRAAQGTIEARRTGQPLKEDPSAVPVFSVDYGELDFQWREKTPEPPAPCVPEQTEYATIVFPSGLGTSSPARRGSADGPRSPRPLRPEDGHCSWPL
Description: (§1) To this end Macacaca fascicularis (cynomolgus) blood was diluted 1:1 with PBS and added to 50 ml tubes containing 13 ml Lymphoprep 95%/PBS 5%. Cells were centrifuged for 30′ at 450 g and 20° C. without brake. Next, plasma was removed by aspiration and PBMCs were recovered from the plasma/Ficoll interface. PBMCs were washed twice times in PBS. Cells were frozen in liquid nitrogen and retrieved from the freezer on the day of the experiment. Since endogenous expression of PD-1 on resting T cells is low thus the thawed PBMCs were stimulated with αCD3/αCD28 coated beads (Gibco) for 48 hours.

[7] = target: T3, Macaca fascicularis PD-1 (Swiss-Prot …); test: flow cytometry on CD3/CD28-stimulated cynomolgus PBMCs, three animals
Description: as §1

B1: hPD1.29H5L4 (antibody, V domains shown)
VH: EVQLVQSGAEVKKPGASVKVSCKASGYIFTTYYIHWVKQAPGKGLEWIGWIFPGDVSTQYNEKFQDKATITVDKSASTAYMQLSSLRSEDTAVYYCTREAYDYAVYWGQGTLVTVSS
VL: DIQMTQAPSSLSASVGDRVTITCKASQNVDTNVAWFQQKPGKAPKSLIFSASYRYSGVPSRFSGSGSGTDFTLTISSLQPEDFATYYCQQYNNYPFTFGGGTKLEIK
notes: Expressed as human IgG4, kappa with the stabilizing S241P (Kabat) hinge mutation in HEK293 cells; also called humanized PD-1 antibody hPD1.29H5L4
EC50 (read off the curve) [1]: ~0.2 nM | IC50; NFAT-luciferase signal (RLU) of Jurkat cells expressing human PD-1, with CHO cells expressing hPD-L1 [2]: 4.39 nM | Kd [3]: 0.011 nM | koff [3]: 9.2e-06 s⁻¹ | kon [3]: 860000 M⁻¹ s⁻¹ | IC50 [4]: 1.3 nM | IC50 [5]: 0.61 nM | EC50 (read off the curve) [6]: ~2 nM | EC50 [7]: 1.6 nM
